{
  "source": "paper PMC4701952",
  "target": "AG^(74-173) (A. thaliana) (UniProt P17839)",
  "test": "SAXS with on-line SEC; Superdex 75 3.2/300 PC on-line at ESRF BM29, 0.1 ml/min, room temperature, 30 mM Tris pH 8.0, 300 mM NaCl, 1 mM TCEP, 5% glycerol; mass from correlated volume and Porod volume; self-association",
  "data": [
    {"substance": "AG^(74-173) (from UniProt P17839 74-173) (domain or fragment)", "values": [
      {"measurement": "stoichiometry N", "value": 2}
    ]}
  ]
}
